Among the data in US5306619, “Screening assay for the detection of DNA-binding molecules” (Genelabs Technologies, Inc.) are koff values, retold here.

Data set [1] has as its target UL9-COOH (C-terminal 317 aa of HSV UL9) (Herpes simplex virus 1, UniProt P10193 P10193:535-851). The experiment in a line: EMSA; dissociation time at 4 C, competition with SEQ 16; 20 mM HEPES pH 7.2, 50 mM KCl, 1 mM DTT. To be noted: tags: GST fusion from pGEX-2T, thrombin cleaved; crude E. coli extracts also used; label: 32P. In general terms: A gel shift assay detects complexes by their altered migration in electrophoresis.

The target in data set [2] is UL9 full length (Herpes simplex virus 1, UniProt P10193 P10193:1-851). The experiment in a line: EMSA; dissociation time at 4 C, competition with SEQ 16. As to conditions: protein: extract; tags: baculovirus/Sf9 expressed, partially purified extract; label: 32P.
Chain of UL9 full length (P10193 whole entry, one chain of several): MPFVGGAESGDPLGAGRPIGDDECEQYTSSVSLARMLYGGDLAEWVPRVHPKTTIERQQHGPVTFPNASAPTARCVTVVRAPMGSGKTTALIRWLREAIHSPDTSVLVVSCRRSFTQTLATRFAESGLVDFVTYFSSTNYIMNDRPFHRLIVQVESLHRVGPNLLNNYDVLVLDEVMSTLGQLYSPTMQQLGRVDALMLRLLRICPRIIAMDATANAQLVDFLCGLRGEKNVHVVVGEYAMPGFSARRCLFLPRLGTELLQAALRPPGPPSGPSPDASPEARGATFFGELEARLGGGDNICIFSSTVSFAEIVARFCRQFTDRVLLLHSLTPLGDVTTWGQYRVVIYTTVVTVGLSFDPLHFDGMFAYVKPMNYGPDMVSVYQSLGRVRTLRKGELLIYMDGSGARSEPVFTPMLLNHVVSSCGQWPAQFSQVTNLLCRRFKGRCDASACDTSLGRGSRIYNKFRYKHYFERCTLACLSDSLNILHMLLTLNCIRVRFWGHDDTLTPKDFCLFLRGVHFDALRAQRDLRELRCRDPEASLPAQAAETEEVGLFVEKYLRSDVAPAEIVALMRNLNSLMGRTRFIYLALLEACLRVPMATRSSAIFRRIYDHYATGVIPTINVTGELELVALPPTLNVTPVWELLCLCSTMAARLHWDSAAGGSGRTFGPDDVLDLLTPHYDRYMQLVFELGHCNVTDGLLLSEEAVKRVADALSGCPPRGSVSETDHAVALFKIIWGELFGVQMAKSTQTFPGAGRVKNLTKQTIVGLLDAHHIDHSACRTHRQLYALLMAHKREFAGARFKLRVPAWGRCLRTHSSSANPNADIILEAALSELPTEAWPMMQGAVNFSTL

Chain of UL9-COOH (C-terminal 317 aa of HSV UL9) (P10193 535-851, one chain of several): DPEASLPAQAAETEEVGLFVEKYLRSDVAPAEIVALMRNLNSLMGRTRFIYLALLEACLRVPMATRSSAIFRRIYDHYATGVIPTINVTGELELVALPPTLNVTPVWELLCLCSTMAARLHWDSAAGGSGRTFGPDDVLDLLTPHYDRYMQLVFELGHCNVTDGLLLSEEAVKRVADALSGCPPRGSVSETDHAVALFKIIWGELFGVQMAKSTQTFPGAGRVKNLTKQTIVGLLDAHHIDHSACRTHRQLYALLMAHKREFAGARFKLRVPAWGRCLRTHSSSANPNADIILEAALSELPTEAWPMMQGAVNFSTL

B1: FIG. 4 HSV oriS oligonucleotide (dsDNA)
DNA 1: AAGTGAGAATTCGAAGCGTTCGCACTTCGTCCCAAT
DNA 2: ATTGGGACGAAGTGCGAACGCTTCGAATTCTCACTT
As for B1, the koff in data set [1] and in data set [2] was ~4 h each time.
